In patent US20190106510A1 (CELLDEX THERAPEUTICS, published 2019):
Numbering of substitutions follows the chain as printed. Values belong to the binder of their own block, whether it stands above or below them.

What was measured:
[1] = target: T1, full-length, wild-type human KIT expressed on CHO cells (human, UniProt P10721 26-976); assay: cell-based or functional assay
[2] = target: T1, full-length, wild-type human KIT …; assay: cell-based or functional assay; remark: listed apart in the source
murine KIT = target: T2, murine KIT (murine, UniProt P05532 25-527, limits assumed); assay: additional binding assays (format not described)
T2 sequence (looked up): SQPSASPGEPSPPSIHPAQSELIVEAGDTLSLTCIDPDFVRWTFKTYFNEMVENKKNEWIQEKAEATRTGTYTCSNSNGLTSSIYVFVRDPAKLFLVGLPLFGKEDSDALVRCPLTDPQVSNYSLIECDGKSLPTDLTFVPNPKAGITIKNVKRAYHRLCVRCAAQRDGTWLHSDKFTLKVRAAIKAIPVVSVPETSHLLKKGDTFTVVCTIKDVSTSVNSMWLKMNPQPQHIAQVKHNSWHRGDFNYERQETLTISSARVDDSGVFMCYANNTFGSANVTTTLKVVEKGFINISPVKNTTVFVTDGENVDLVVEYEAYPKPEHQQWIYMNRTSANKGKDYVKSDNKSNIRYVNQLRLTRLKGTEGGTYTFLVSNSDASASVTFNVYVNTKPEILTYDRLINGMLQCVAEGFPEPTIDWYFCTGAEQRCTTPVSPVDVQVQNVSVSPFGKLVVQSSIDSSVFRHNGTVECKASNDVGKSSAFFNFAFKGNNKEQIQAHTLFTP

[3] = target: T1, full-length, wild-type human KIT …; assay: flow cytometry on CHO cells expressing full-length wild-type human KIT (FIG. 6)
Protocol: Briefly, parental CHO cells and CHO/KIT-WT cells were washed and incubated with 0.01 nM, 0.1 nM, 1 nM or 10 nM of a chimeric (human-mouse) 37M antibody, antibody Hum17, Hum8, Hum4, or Hum10, a negative control isotype IgG antibody, or a commercial anti-KIT antibody as a positive control. The samples were processed for flow cytometry analysis. More specifically, cells were removed from the culture flasks using EDTA, and washed with PBS. Then, the cells were resuspended in media and counted. Each sample containing approximately 200,000 to 250,000 cells was spun, the media was removed, and the cells were resuspended in FC buffer (1% BSA, 0.01% sodium azide in 1×PBS) for the blocking step. The cells were incubated in FC buffer for 1 hour on ice. Then, primary antibody (e.g., a chimeric (human-mouse) 37M antibody, Hum17, Hum8, Hum4, Hum10, positive control anti-KIT antibody, or negative control antibody) was added to the cells in FC buffer as described above. The samples were mixed and incubated on ice for 1 hour, followed by washing the cells with 0.5-1 mL FC buffer. The FC buffer was removed by spinning the cells at 1200 rpm for 3 minutes at 4° C., decanting the liquid. The cell pellets were resuspended in 200 μL FC buffer, and secondary antibody (DyLight 488 AffiniPure Goat Anti-Mouse IgG Jackson Laboratories) was added to the cells at a 1:1000 to 1:2000 dilution. The samples were mixed and incubated on ice for 1 hour, and then washed as described above. The samples were run on a fluorescence activated cell sorter (FACS) machine (Accuri FlowCytometer C6). Samples were analyzed by following channel FLA-1 for DyLight-conjugated samples.

recombinant KIT D4/D5 [4] = target: T3, recombinant KIT D4/D5 (human, UniProt P10721 26-519); assay: solid phase ELISA, plate-adsorbed recombinant D4/D5 region of human KIT (FIG. 5)
T3 construct: also called recombinant c-Kit Ig-like domains D4/D5; recombinant polypeptide of the D4/D5 region of human KIT
T3 sequence (P10721 other isoform, or with tags, fused parts or gaps limits assumed): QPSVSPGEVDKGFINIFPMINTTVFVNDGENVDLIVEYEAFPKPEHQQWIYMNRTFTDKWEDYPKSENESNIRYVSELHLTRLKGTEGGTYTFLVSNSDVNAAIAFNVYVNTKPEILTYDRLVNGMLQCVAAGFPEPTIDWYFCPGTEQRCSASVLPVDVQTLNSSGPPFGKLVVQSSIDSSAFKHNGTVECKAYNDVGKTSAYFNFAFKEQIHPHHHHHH
Protocol: Recombinant antigen corresponding to the D4/D5 region of the KIT extracellular domain (see FIG. 2) was absorbed onto 96-well microtiter plates. In particular, recombinant antigen (5 μg) were diluted into 10 mL of borate buffer, and 100 μL of the antigen solution were added to each well of a 96 well plate and were incubated at 4° C. overnight.
ELISA: Following one rinse with TBS-T, blocking buffer (200 μL) was added to each well of the plate with the adsorbed antigen and was incubate at room temperature for one hour. Then, the blocking buffer was removed, and the serially diluted solutions of test antibodies and controls were added to the plate in a volume of 50 μL and incubated at room temperature for one hour. The antibody solutions were removed, and the plate was washed three times with 100 μL of wash buffer on a plate washer. After the last wash, the plate was blotted dry. Secondary antibody solution was diluted 1:8000 and was added to each well in a volume of 100 μL and allowed to incubate for one hour at room temperature. The diluted secondary antibody solution was removed, and the plate was washed three times with 100 μL of wash buffer on a plate washer. Then, freshly mixed TMB substrate solution was added to each well in a volume of 100 μL and was allowed to incubate at room temperature for 30 minutes. Subsequently, 100 μL of 2N H₂SO₄ were added to each well and immediately read on the plate reader. An irrelevant antibody served as the negative control, and an anti-KIT antibody against the D4 and/or D5 domain of the extracellular region of KIT served as the positive control. OD values for each sample were obtained at a wavelength of 450 nm.
Results were analyzed using Graph Pad Prism and Excel to obtain the concentration of antibodies at 50% binding to antigen.

recombinant KIT D4/D5 [5] = target: T3, recombinant KIT D4/D5; assay: direct binding ELISA, plate-coated recombinant KIT D4/D5; assay #3 (purified)
Protocol: (§1) The binding affinity of the anti-KIT antibodies to the target antigen KIT Ig-like domains D4/D5 was assessed by direct binding ELISA. […] Bound antibody was detected with anti-human Ig-HRP followed by detection using TMB substrate.

recombinant KIT D4/D5 [6] = target: T3, recombinant KIT D4/D5; assay: direct binding ELISA, plate-coated recombinant KIT D4/D5; assay #4 (purified)
Protocol: as §1

recombinant KIT D4/D5 [7] = target: T3, recombinant KIT D4/D5; assay: direct binding ELISA, plate-coated recombinant KIT D4/D5; assay #1 (supernatant)
Protocol: as §1

recombinant KIT D4/D5 [8] = target: T3, recombinant KIT D4/D5; assay: direct binding ELISA, plate-coated recombinant KIT D4/D5; assay #2 (supernatant)
Protocol: as §1

recombinant KIT D4/D5 [9] = target: T3, recombinant KIT D4/D5; assay: direct binding ELISA, plate-coated recombinant KIT D4/D5; assay #4 (purified), 1 replicate
Protocol: as §1

recombinant KIT D4/D5 [10] = target: T3, recombinant KIT D4/D5; assay: direct binding ELISA, plate-coated recombinant KIT D4/D5; assay #3 (purified), mean of 2 replicates
Protocol: as §1

recombinant KIT D4/D5 [11] = target: T3, recombinant KIT D4/D5; assay: direct binding ELISA, plate-coated recombinant KIT D4/D5; assay #1 (supernatant), mean of 4 replicates
Protocol: as §1

recombinant KIT D4/D5 [12] = target: T3, recombinant KIT D4/D5; assay: direct binding ELISA, plate-coated recombinant KIT D4/D5; assay #2 (supernatant), mean of 5 replicates
Protocol: as §1

T1 sequence (P10721 other isoform, or with tags, fused parts or gaps limits assumed): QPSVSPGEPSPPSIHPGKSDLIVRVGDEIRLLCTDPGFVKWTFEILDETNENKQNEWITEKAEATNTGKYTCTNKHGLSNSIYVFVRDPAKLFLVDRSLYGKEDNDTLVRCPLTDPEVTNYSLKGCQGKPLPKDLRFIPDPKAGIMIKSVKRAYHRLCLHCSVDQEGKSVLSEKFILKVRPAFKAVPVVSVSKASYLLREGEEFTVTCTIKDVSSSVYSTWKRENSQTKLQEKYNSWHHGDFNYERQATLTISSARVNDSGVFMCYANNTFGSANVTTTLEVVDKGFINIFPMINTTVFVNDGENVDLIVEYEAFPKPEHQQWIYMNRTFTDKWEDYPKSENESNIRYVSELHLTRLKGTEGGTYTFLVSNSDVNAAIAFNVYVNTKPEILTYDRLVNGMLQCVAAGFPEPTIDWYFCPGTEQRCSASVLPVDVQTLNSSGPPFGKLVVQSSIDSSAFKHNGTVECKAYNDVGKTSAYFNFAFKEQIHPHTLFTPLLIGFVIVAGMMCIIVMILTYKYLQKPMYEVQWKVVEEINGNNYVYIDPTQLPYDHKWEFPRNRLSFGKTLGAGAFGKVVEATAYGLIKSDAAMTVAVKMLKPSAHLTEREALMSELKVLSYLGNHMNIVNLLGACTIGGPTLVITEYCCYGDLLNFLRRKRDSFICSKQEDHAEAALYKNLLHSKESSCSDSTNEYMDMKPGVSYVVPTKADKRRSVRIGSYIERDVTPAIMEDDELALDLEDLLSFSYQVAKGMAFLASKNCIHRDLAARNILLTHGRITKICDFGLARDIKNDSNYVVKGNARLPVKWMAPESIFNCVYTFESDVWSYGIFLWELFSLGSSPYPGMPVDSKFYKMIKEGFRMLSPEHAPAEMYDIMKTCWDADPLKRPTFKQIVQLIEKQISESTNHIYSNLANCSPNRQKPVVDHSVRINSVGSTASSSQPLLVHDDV

B1: Hum8 (antibody, V domains shown)
VH: QVQLVQSGAEVKKPGASVKLSCKASGYTFTDYYINWVRQAPGKGLEWIARIYPGSGNTYYNEKFKGRATLTADKSTSTAYMQLSSLRSEDTAVYFCARGVYYFDYWGQGTTVTVSS
VL: DIVMTQSPSSLSASVGDRVTITCKASQNVRTNVAWYQQKPGKAPKALIYSASYRYSGVPDRFTGSGSGTDFTLTISSLQPEDFADYFCQQYNSYPRTFGGGTKVEIK
50% inhibition concentration (IC50), SCF-induced KIT tyrosine phosphorylation, cell-based phospho-KIT ELISA [1]: ~542 pM
Relative blocking activity, assay #3 (96-well): IC50 of inhibition of SCF-induced KIT phosphorylation, normalized to chimeric 37M antibody [2]: 1.01 relative to chimeric 37M antibody
Relative blocking activity, assay #4 (96-well): IC50 of inhibition of SCF-induced KIT phosphorylation, normalized to chimeric 37M antibody [2]: 1.12 relative to chimeric 37M antibody
binding result (murine KIT): no binding
EC50 [3]: ~83 pM
EC50 (recombinant KIT D4/D5 [4]): ~11 pM
Relative binding activity (recombinant KIT D4/D5 [5]): 0.89 relative to chimeric antibody 37C (normalized EC50)
Relative binding activity (recombinant KIT D4/D5 [6]): 0.75 relative to chimeric antibody 37C (normalized EC50)
Relative binding activity (recombinant KIT D4/D5 [7]): 1.02 relative to chimeric antibody 37C (normalized EC50)
Relative binding activity (recombinant KIT D4/D5 [8]): 0.62 relative to chimeric antibody 37C (normalized EC50)

B2: Hum10 (antibody, V domains shown)
VH: B1 VH with L20V, A68V, L70I, Q82E
VL: B1 VL
50% inhibition concentration (IC50), SCF-induced KIT tyrosine phosphorylation, cell-based phospho-KIT ELISA [1]: ~510 pM
Relative blocking activity, assay #2 (24-well): IC50 of inhibition of SCF-induced KIT phosphorylation, normalized to chimeric 37M antibody [2]: 0.82 relative to chimeric 37M antibody
Relative blocking activity, assay #4 (96-well): IC50 of inhibition of SCF-induced KIT phosphorylation, normalized to chimeric 37M antibody [2]: 0.86 relative to chimeric 37M antibody
binding result (murine KIT): no binding
EC50 [3]: ~132 pM
EC50 (recombinant KIT D4/D5 [4]): ~23 pM
Relative binding activity (recombinant KIT D4/D5 [5]): 0.87 relative to chimeric antibody 37C (normalized EC50)
Relative binding activity (recombinant KIT D4/D5 [6]): 0.72 relative to chimeric antibody 37C (normalized EC50)
Relative binding activity (recombinant KIT D4/D5 [7]): 1.1 relative to chimeric antibody 37C (normalized EC50)
Relative binding activity (recombinant KIT D4/D5 [8]): 0.88 relative to chimeric antibody 37C (normalized EC50)

The remaining lines, values ahead:

50% inhibition concentration (IC50), SCF-induced KIT tyrosine phosphorylation, cell-based phospho-KIT ELISA [1]: ~510 pM
Relative blocking activity, assay #2 (24-well): IC50 of inhibition of SCF-induced KIT phosphorylation, normalized to chimeric 37M antibody [2]: 1.39 relative to chimeric 37M antibody
Relative blocking activity, assay #4 (96-well): IC50 of inhibition of SCF-induced KIT phosphorylation, normalized to chimeric 37M antibody [2]: 1.07 relative to chimeric 37M antibody
binding result (murine KIT): no binding
EC50 [3]: ~139 pM
EC50 (recombinant KIT D4/D5 [4]): ~6.6 pM
Relative binding activity (recombinant KIT D4/D5 [5]): 0.98 relative to chimeric antibody 37C (normalized EC50)
Relative binding activity (recombinant KIT D4/D5 [6]): 0.72 relative to chimeric antibody 37C (normalized EC50)
Relative binding activity (recombinant KIT D4/D5 [7]): 1.17 relative to chimeric antibody 37C (normalized EC50)
Relative binding activity (recombinant KIT D4/D5 [8]): 0.76 relative to chimeric antibody 37C (normalized EC50)
B3: Hum17 (antibody, V domains shown)
VH: B1 VH with R38K, D73E
VL: B1 VL with A46S, T63S, D85T, F87Y

50% inhibition concentration (IC50), SCF-induced KIT tyrosine phosphorylation, cell-based phospho-KIT ELISA [1]: ~344 pM
EC50 [3]: ~47 pM
EC50 (recombinant KIT D4/D5 [4]): ~12 pM
EC50 (recombinant KIT D4/D5 [9]): 568 pM
EC50 (recombinant KIT D4/D5 [10]): 462 pM
EC50 (recombinant KIT D4/D5 [11]): 381 pM
EC50 (recombinant KIT D4/D5 [12]): 412 pM
B4: chimeric antibody 37C (antibody, V domains shown)
VH: QVQLKQSGAELVRPGASVKLSCKASGYTFTDYYINWVKQRPGQGLEWIARIYPGSGNTYYNEKFKGKATLTAEKSSSTAYMQLSSLTSEDSAVYFCARGVYYFDYWGQGTTLTVSA
VL: DIVMTQSQKFMSTSVGDRVSVTCKASQNVRTNVAWYQQKPGQSPKALIYSASYRYSGVPDRFTGSGSGTDFTLTISNVQSEDLADYFCQQYNSYPRTFGGGTKLEIK
notes: also called chimera of antibody 37M; chimera
